Like-named read-outs stand apart in the source and are kept apart here.
What was measured:
Assay in all cases: crystal structure
[1] = target: lysine-methylated EphA4 ectodomain (EphA4_(ecto)), human (human, UniProt P54764 20-547, lysine-methylated)
[2] = target: T1, EphA4 ectodomain (EphA4_(ecto)), human (human, UniProt P54764 20-547)
[3] = target: T1, EphA4 ectodomain (EphA4_(ecto)), human; remark: listed apart in the source

T1 sequence (P54764 20-547): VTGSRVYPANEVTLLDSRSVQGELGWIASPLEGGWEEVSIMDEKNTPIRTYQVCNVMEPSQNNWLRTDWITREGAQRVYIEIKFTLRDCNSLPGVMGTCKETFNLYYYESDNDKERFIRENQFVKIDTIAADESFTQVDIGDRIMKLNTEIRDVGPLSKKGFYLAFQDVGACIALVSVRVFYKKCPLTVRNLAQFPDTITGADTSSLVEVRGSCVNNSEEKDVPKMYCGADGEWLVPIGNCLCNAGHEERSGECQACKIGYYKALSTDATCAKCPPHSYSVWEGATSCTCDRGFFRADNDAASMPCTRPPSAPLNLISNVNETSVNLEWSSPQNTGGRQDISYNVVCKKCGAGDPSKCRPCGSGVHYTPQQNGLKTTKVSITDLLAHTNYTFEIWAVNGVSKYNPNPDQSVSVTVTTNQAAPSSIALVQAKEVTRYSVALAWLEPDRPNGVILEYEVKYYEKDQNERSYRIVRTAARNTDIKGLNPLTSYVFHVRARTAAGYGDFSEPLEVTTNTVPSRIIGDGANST
lysine-methylated EphA4 ectodomain (EphA4_(ecto)), human, sequence (P54764 20-547): as above

B1: ephrinA5 receptor-binding domain (RBD), human, of the lysine-methylated complex sample (domain or fragment)
chain: AVADRYAVYWNSSNPRFQRGDYHIDVCINDYLDVFCPHYEDSVPEDKTERYVLYMVNFDGYSACDHTSKGFKRWECNRPHSPNGPLKFSEKFQLFTPFSLGFEFRPGREYFYISSAIPDNGRRSCLKLKVFVRPTNSCMK
modifications: lysine-methylated (the paper calls the EphA4_(ecto)-ephrinA5 RBD complex sample lysine-methylated)
binding result [1]: binds

B2: ephrinA5 receptor-binding domain (RBD), human (domain or fragment)
chain: B1 chain
binding result [2]: binds

B3: ephrinB3 receptor-binding domain (RBD), human (domain or fragment)
chain: GLSLEPVYWNSANKRFQAEGGYVLYPQIGDRLDLLCPRARPPGPHSSPNYEFYKLYLVGGAQGRRCEAPPAPNLLLTCDRPDLDLRFTIKFQEYSPNLWGHEFRSHHDYYIIATSDGTREGLESLQGGVCLTRGMKVLLRVGQ
binding result [3]: binds

Source: publication PMC3941021 (Nature structural & molecular biology, 2013)
